From article doi:10.1101/2025.09.16.676546

Biological target: E.amu APN ectodomain, His-tagged (for cryo-EM) (Erinaceus amurensis)
Experiment: cryo-EM structure

EriCoV RU15-1 RBD, His-tagged (for cryo-EM, BLI and SPR) (domain or fragment)
share of the total particles that are the complex: 5%
